Laboratory results as given in patent US20220064324A1 (US Dept. of Health and Human Services, published 2022).
Numbering of substitutions follows the chain as printed.

T1: human mesothelin Fragment 1 (residues 296-390) (human, UniProt Q13421 296-390)
T1 construct: also called Region I
T1 chain: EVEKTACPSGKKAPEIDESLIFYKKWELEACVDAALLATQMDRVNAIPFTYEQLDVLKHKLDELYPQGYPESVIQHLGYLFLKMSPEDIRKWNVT

T2: human mesothelin Region IAB (296-359) (human, UniProt Q13421 296-359)
T2 construct: also called IAB domain
T2 chain: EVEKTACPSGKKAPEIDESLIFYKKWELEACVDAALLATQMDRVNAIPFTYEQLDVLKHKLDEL

T3: human mesothelin Region IAB Y318A mutant (human, UniProt Q13421 296-359)
T3 chain: T2 chain with Y23A

B1: G8 camel single-domain (VHH) monoclonal antibody (VHH)
VHH: QVKLEESGGGSVQAGGSLRLSCTTSGYTNSYKWMGWFRQAPGQEREGVAVIYTGNDRTYYSDSVKGRFTISRDNAKNMIYLDMTRLRPEDSAVYECAIGHDGAWRYWGQGTQVTVSS
notes: Isolated from a camel VHH phage display library; also called G8 antibody; G8 anti-mesothelin VHH antibody
B2: A101 camel single-domain (VHH) monoclonal antibody (VHH)
VHH: QVQLVESGGGTVQAGGSLKLACAASGLPRTYNVMGWFRQAPGKEREGVAIIYTTTGATYYRDSVKGRATISQDNAKKSVSLQMNSLRPEDTAIYYCVARQPNSGPWEYWGQGTQVTVSS
notes: Isolated from a camel VHH phage display library; also called A101 antibody; A101 anti-mesothelin VHH antibody

Assays:
[1] = biological target: T1, human mesothelin Fragment 1 (residues …); experiment: ELISA on mesothelin Region I, VHH concentration not given
[2] = biological target: T2, human mesothelin Region IAB (296-359); experiment: ELISA on mesothelin Region IAB, VHH concentration not given
[3] = biological target: T3, human mesothelin Region IAB Y318A mutant; experiment: ELISA on Region IAB mutant Y318A, VHH concentration not given

Row | Binder | binding result [1] | binding result [2] | binding result [3]
1 | B1 | binds | binds | no binding
2 | B2 | binds | binds | no binding
